Patent US20240228627A1, “GALECTIN-1-SPECIFIC MONOVALENT ANTIBODIES AND USES THEREOF” (INSTITUT NATIONAL DE LA RECHERCHE SCIENTIFIQUE, priority 2021, published 2024)

Columns and labels:
[1] = biological target: T1, recombinant human GAL-1 (rhGAL-1) (Homo sapiens, UniProt P09382); test: inhibition of galectin-1-induced apoptosis of Jurkat T cells (annexin V/propidium iodide flow cytometry); type: cell-based; conditions: rhGAL-1 2.25 μM, 4 h at 37° C., increasing concentrations of nanobody
T1 construct: made in house; host or cells: E. coli BL21 (DE3), pET-22b(+)
T1 sequence (P09382 whole entry): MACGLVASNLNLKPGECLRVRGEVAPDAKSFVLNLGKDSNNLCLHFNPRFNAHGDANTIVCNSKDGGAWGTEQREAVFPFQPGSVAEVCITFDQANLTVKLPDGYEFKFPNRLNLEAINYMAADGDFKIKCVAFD
Description: Briefly, Jurkat T cells were incubated with recombinant human GAL-1 (rhGAL-1; 2.25 μM) for 4h at 37° C. in presence of increasing concentrations of G1N1 and G1N2. Apoptosis was measured by flow cytometry using conventional annexin V/propidium iodide staining. Results represent data recorded on 5000 cells. Errors bars represent standard deviation.
Jurkat T cells were incubated with increasing concentrations of G1N1 pre-incubated with rhGAL-1 (2.25 μM) for 4 h at 37° C., after which apoptosis was measured by flow cytometry using Annexin V/propidium iodide staining. 5000 events were recorded. Errors bars represent standard deviation.
Apoptosis of human T cells. In vitro apoptosis assays were carried out using the standard in vitro human Jurkat T cell model system, fluorescein isothiocyanate (FITC)-labeled annexin V (Biolegend, San Diego, CA, USA) and propidium iodide (PI). Briefly, recombinant galectin-1 was pre-incubated for 1 h at 4° C. in serum free RPMI 1640 medium before addition to Jurkat cells. The mixture was incubated at 37° C. for 4 h. Cells were then washed once in PBS and once in binding buffer (0.01 M HEPES, 0.14 M NaCl, 2.5 mM CaCl2, pH 7.4). For staining, cells were incubated for 15 min with FITC-labeled annexin V in the dark at room temperature. The PI (0.25 μg/mL) stain was added to cells just before analysis by flow cytometry.

[2] = biological target: T2, GAL-1-Biotin (biotinylated human GAL-1) (Homo sapiens, UniProt P09382); test: non-adsorbed phage ELISA of VHH clones on GAL-1-Biotin; type: binding; conditions: HRP-conjugated anti-M13 antibody, TMB substrate; 282 clones tested
T2 construct: made in house; host or cells: E. coli BL21 (DE3), pET-22b(+)
T2 sequence (P09382 whole entry): as above
Description: Generation and production of single chain camelid antibodies. Galectin-specific single chain (VHH) camelid antibodies were obtained following in vitro screening of a non-immune humanized synthetic single domain antibodies (hsd2Ab) library that contains more than 3×10^9 clones expressed at the surface of M13 phage [Moutel et al., 2016]. The panning was carried out against immobilized recombinant human galectin-1 devoid of carbohydrate in its glycan binding site (GBS). Prior to the phage display selection, galectin-1-biotin and GST-Biotin were bound to streptavidin magnetic beads (Dynabeads® M-280 Streptavidin, Life Technologies) with a 50 nM final concentration of biotinylated protein for the first round and 10 nM final concentration of biotinylated protein for the second and third rounds. […] Following three-rounds of phage display, clones were picked randomly and analyzed by non-adsorbed phage ELISA using HRP-conjugated anti-M13 antibody (GE Healthcare) and a colorimetric substrate (TMB, tetramethylbenzidine, Thermo Fischer).
Following an initial pre-screen round of phage display carried out with GST-biotin to deplete the library from unspecific binders, unbound VHHs were incubated with GAL-1-Biotin beads. […] A total of 282 VHHs were then picked and analyzed by ELISA for galectin-1 binders.

B1: G1N2: galectin-1-specific single-domain VHH nanobody, SEQ ID NO:9; weak-binding second clone from phage display (protein)
VHH: MAEVQLQASGGGFVQPGGSLRLSCAASGSTYFHTAMGWFRQAPGKEREFVSAISGFANPHRYYASSVKGRFTISRDNSKNTVYLQMNSLRAEDTATYYCANLISTNRGWLMGYWCQGTQVTVSS
modifications: G1N2 VHH
inhibition of galectin-1-induced apoptosis of Jurkat T cells [1]: not
binding in phage ELISA in the presence of GAL-1-Biotin [2]: weak binding
